This is an account of results in US5747275, “Protein kinase required for RAS signal transduction” (The Regents of the University of California, dated 1998).

For assay [1], the target named is Drosophila Ras1 (Drosophila, UniProt P08646). Briefly: yeast two-hybrid system or bacterially-expressed fusion proteins.
The target of assay [2] is Dsor1 (D-MEK) (Drosophila, UniProt Q24324). In words: yeast two-hybrid.

B1: Drosophila melanogaster kinase suppressor of ras (Ksr) (enzyme)
chain: MSSNNNAPASAPDTGSTNANDPISGSLSVDSNLVIIQDMIDLSANHLEGLRTQCAISSTLTQQEIRCLESKLVRYFSELLLAKMRLNERIPANGLVPHTTGNELRQWLRVVGLSQGTLTACLARLTTLEQSLRLSDEEIRQLLADSPSQREEEELRRLTRAMQNLRKCMESLESGTAASNNDPEQWHWDSWDRPTHIHRGSVGNIGLGNNSTASPRTHHRQHGVKGKNSALANSTNFKSGRQSPSATEELNSTQGSQLTLTLTPSPPNSPFTPSSGLSSSLNGTPQRSRGTPPPARKHQTLLSQSHVQVDGEQLARNRLPTDPSTDSHSSTSSDIFVDPNTNASSGGSSSNVLMVPCSPGVGHVGMGHAIKHRFTKALGFMATCTLCQKQVFHRWMKCTDCKYICHKSCAPHVPPSCGLPREYVDEFRHIKEQGGYASLPHVHGAAKGSPLVKKSTLGKPLHQQHGDSSSPSSSCTSSTPSSPALFQQRERELDQAGSSSSANLLPTPSLGKHQPSQFNFPNVTVTSSGGSGGVSLISNEPVPEQFPTAPATANGGLDSLVSSSNGHMSSLIGSQTSNASTAATLTGSLVNSTTTTSTCSFFPRKLSTAGVDKRTPFTSECTDTHKSNDSDKTVSLSGSASTDSDRTPVRVDSTEDGDSGQWRQNSISLKEWDIPYGDLLLLERIGQGRFGTVHRALWHGDVAVKLLNEDYLQDEHMLETFRSEVANFKNTRHENLVLFMGACMNPPYLAIVTSLCKGNTLYTYIHQRREKFAMNRTLLIAQQIAQGMGYLHAREIIHKDLRTKNIFIENGKVIITDFGLFSSTKLLYCDMGLGVPHNWLCYLAPELIRALQPEKPRGECLEFTPYSDVYSFGTVWYELICGEFTFKDQPAESIIWQVGRGMKQSLANLQSGRDVKDLLMLCWTYEKEHRPQFARLLSLLEHLPKKRLARSPSHPVNLSRSAESVF
Take B1: the binding result in assay [1] and in assay [2] was “no binding” each time.
